# Measurements from US20080199896.
# Assays:
# [1] = biological target: GST-TSC2 fragment 1 (amino acids 910-1112) (UniProt P49816)
# [2] = biological target: GST-TSC2 fragment 2 (amino acids 1357-1765) (UniProt P49816)
# [3] = biological target: TSC2 fragment containing S1345 (UniProt P49816)
# [4] = biological target: purified TSC2-F2 fragment (AMPK assay, contains T1227) (UniProt P49816)
Substance,in vitro phosphorylation by purified kinase [1],in vitro phosphorylation by purified kinase [2],in vitro phosphorylation by immunoprecipitated kinase [3],in vitro phosphorylation by immunoprecipitated kinase [4]
GST-Akt (wild type),"Wild-type Akt, but not the kinase-inactive Akt-KM mutant, efficiently phosphorylated both fragment 1 and fragment 2 of TSC2 in vitro","Wild-type Akt, but not the kinase-inactive Akt-KM mutant, efficiently phosphorylated both fragment 1 and fragment 2 of TSC2 in vitro",,
immunoprecipitated AMPK (in vitro kinase assay),,,"The TSC2 fragment was phosphorylated by immunoprecipitated AMPK, but not the kinase inactive AMPK mutant",In vitro phosphorylation of the purified TSC2-F2 fragment by immunoprecipitated AMPK showed that AMPK specifically phosphorylates TSC2 on T1227
